Blank lines part the entries; values can stand above or below the substance they belong to.
Key:
TOPBP1 [1] = target: TOPBP1 (UniProt Q92547); experiment: GST pull-down from nuclear extract; details: reference: wild-type fragment; sites S196
TOPBP1 [2] = target: TOPBP1 (UniProt Q92547); experiment: HA immunoprecipitation, western blot; details: reference: wild type

binding against the reference (TOPBP1 [1]): lost
Substance: MDC1 109-330 (from UniProt Q14676) S196A

binding against the reference (TOPBP1 [2]; sites S168): lost
Substance: MDC1 (from UniProt Q14676) S168A

binding against the reference (TOPBP1 [2]; sites S196): lost
Substance: MDC1 (from UniProt Q14676) S196A

— paper PMC6509287
